Read-outs that look alike come from different tables or passages of the source. Ends that are not written are not given here.
Assays:
Assay in all cases: cell-based or functional assay
[1] = target: corticotropin releasing factor 1 receptor
[2] = target: T1, corticotropin releasing factor 2 receptor
T1 sequence (Q13324 whole entry, species assumed, looked up): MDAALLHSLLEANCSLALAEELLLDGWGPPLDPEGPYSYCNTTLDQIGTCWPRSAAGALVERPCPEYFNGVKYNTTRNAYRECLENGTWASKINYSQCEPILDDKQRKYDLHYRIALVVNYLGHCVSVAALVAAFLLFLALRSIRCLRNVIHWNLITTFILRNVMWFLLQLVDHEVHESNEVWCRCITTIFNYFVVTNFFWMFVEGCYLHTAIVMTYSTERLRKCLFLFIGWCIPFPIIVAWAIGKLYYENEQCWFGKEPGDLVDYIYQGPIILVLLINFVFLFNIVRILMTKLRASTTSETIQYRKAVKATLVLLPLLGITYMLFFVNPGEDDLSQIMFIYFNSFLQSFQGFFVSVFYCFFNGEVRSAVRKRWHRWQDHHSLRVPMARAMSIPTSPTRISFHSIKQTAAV

[3] = target: T2, corticotropin releasing factor 2 receptor; remark: listed apart in the source
T2 sequence (Q13324 whole entry, species assumed, looked up): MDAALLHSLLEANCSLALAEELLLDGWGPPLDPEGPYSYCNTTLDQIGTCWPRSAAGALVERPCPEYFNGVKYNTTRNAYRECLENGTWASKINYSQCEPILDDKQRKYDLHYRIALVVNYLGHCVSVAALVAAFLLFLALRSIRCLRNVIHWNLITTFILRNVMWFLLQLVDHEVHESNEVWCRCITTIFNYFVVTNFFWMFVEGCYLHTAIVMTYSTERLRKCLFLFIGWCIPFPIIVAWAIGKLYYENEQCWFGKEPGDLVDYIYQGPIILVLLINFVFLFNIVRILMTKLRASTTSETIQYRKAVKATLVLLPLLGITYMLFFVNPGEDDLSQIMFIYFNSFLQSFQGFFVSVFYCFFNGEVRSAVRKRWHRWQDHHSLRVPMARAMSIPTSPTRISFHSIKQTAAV

[4] = target: corticotropin releasing factor 1 receptor; remark: listed apart in the source

Binder	CRF1R EC50 [1] [nM]	CRF1R Emax % [1] [%]	CRF2R EC50 [2] [nM]	CRF2R Emax % [2] [%]	CRF2R EC50 [3] [nM]	CRF2R Emax % [3] [%]	CRF1R EC50 [4] [nM]	CRF1R Emax % [4] [%]
TKFTLSLDVPTNIMNLLFNIAKAKNLRAQAAANAHLMAQI (ends and bridges not checked) [human urocortin III fragment]	> 1000	10.2	> 100	60				
DNPSLSIDLTFHLLRTLLELARTQSQRERAEQNRIIFDSV (ends and bridges not checked) [human urocortin I fragment]	9	100	3.52	100				
IVLSLDVPIGLLQILLEQARARAAREQATTNARILARV (ends and bridges not checked) [human urocortin II fragment]	> 100	9	3.64	98				
ZGPPISIDLPLYLLRKMIEIEKQEKEKQQAANNALLLDTI (C-terminal amide) [SEQ ID NO 244]					8.8	98	300	100
ZGPPISIDLPFQLLRKMIEIEKQEKEKQQAANNRLLLATI (C-terminal amide) [SEQ ID NO 250]					19.7	100	138	99
ZGPPISIDLPFQLLRKMIEIEKQEKEKQQAANNALLLDTI (C-terminal amide) [SEQ ID NO 251]					11.8	100	926	80
ZGPPISIDLPLYLLRKMIEIEKQEKEKQQAANNALLLATI (C-terminal amide) [SEQ ID NO 245]					7.5	93	381	100
ZGPPISIDLPLQLLRKMIEIEKQEKEKQQAANNALLLDTI (C-terminal amide) [SEQ ID NO 248]					19.6	98	1000	32
ZGPPISIDVPIGLLRKMIEIEKQEKEKQQAANNRLLLDTI (C-terminal amide) [SEQ ID NO 254]					100	36	708	6
ZGPPISIDLPLQLLEKMIEIEKQEKEKQQAANNALLLATI (C-terminal amide) [SEQ ID NO 249]					12.2	92	1000	50
ZGPPISIDLPFQLLRILIEIEKQEKEKQQAANNRLLLDTI (C-terminal amide) [SEQ ID NO 255]					7	100	33.3	84
ZGPPISIDLPLQLLRKMIEIEKQEKEKQQATTNARLLDTV (C-terminal amide) [SEQ ID NO 246]					38.8	100	1000	33
ZGPPISIDLPTYLLRILIEIEKQEKEKQQAANNRLLLDTI (C-terminal amide) [SEQ ID NO 252]					22.3	100	226	100
ZGPPISIDVPTYLLRKMIEIEKQEKEKQQAANNRLLLDTI (C-terminal amide) [SEQ ID NO 253]					41.8	86	1000	42
ZGPPISIDLPLQLLEKMIEIEKQEKEKQQATTNARLLDRV (C-terminal amide) [SEQ ID NO 247]					18.8	100	1000	34
SEEPPISLDLTFHLLREVLEMARAEQLAQQAHSNRKLMEII (ends and bridges not checked) [human corticotropin releasing factor fragment]	19.9	87	49.2	100				
SQEPPISLDLTFHLLREVLEMTKADQLAQQAHSNRKLLDIA (ends and bridges not checked) [ovine corticotropin releasing factor fragment]	27.4	98	> 100	33				
